{"source": "patent US20040019188A1", "about": "“Targeting through integrins” (priority 2000, published 2004)", "target": "β1 integrins on HEp-2 cells", "data": [{"substance": "RGDS peptide (Gibco)", "values": [{"measurement": "ID30", "value": 170, "unit": "µM"}]}]}
